Data taken from patent US20170044238A1 (NATIONAL RESEARCH COUNCIL OF CANADA, published 2017).
Positions count from the first letter of the chain named.

What was measured:
protein A [1] = target: T1, protein A (UniProt P38507 37-477); assay: SPR (Biacore 3000), VH over immobilized protein A
T1 construct: Bought (Pierce); immobilized on CM5 chip by amine coupling; also called recombinant protein A
Protocol: Immobilizations were carried out at 50 μg/mL in 10 mM acetate buffer, pH 4.5, using the amine coupling kit supplied by the manufacturer (GE Healthcare). All measurements were carried out at 25° C. in HBS-EP buffer at a flow rate of 50 μL/min. Surfaces were regenerated by washing with the running buffer.

protein A [2] = target: T1, protein A; assay: SPR (Biacore 3000), VH over immobilized protein A; value in parentheses obtained with higher concentration of monomer (footnote d)
Protocol: For mutant VHs (HVHP44S, HVHB82S, HVHP421S, HVHP419S, HVHP430S, HVHP429S, HVHM81S, HVHP428S, HVHP420S, HVHM41S, HVHP423S, HVHP413S, HVHP426S, and HVHP414S), approximately 1,170 RUs and 1,240 RUs of recombinant protein A and ovalbumin (reference protein), respectively, were immobilized on research grade sensor chip CMS. Immobilizations were carried out at 50 μg/mL in 10 mM acetate buffer (pH 4.5 for both protein A and ovalbumin) using the amine coupling kit supplied by the manufacturer. All measurements were carried out at 25° C. in HBS-EP buffer at a flow rate of 20 μL/min or 40 μL/min for HVHB82S, HVHP421S, HVHP429S, HVHM41S, HVHM81S, HVHP423S, HVHP413S, HVHP426S, and HVHP414S or HVHP44S, HVHP419S, HVHP430S, HVHP428S, and HVHP420S, respectively. The protein A binding property of the wild-type counterparts were determined previously (To et al 2005).

human lysozyme = target: T2, human lysozyme (human, UniProt P61626 19-148); assay: SPR (Biacore 3000), human lysozyme over immobilized VL
T2 construct: Bought; passed through Superdex 75 before SPR
T2 sequence (looked up): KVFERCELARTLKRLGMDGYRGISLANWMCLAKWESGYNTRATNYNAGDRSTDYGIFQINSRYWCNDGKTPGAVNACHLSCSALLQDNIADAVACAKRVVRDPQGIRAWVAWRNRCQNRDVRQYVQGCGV
Protocol: The affinities (KDs) of the anti-human lysozyme VLs to their antigen, human lysozyme, was also determined. The binding of human lysozyme to immobilized anti-human lysozyme VL binders was determined by surface plasmon resonance (SPR) using BIACORE 3000 (GE Healthcare). […] Immobilizations were carried out at concentrations of 10 μg/mL in 10 mM acetate at pH 4.5 using the amine coupling kit supplied by the manufacturer. Human lysozyme was passed through a Superdex 75 column (GE Healthcare) in HBS-EP buffer (10 mM HEPES, pH 7.4, 150 mM NaCl, 3 mM EDTA and 0.005% P20 surfactant) with flow rate of 0.5 mL/min to eliminate any possible aggregates prior to Biacore analysis. For the binding studies, analyses were carried out at 25° C. in 10 mM HEPES, pH 7.4 containing 150 mM NaCl, 3 mM EDTA and 0.005% surfactant P20. The flow rates used were 20 μL/min. For regeneration the surfaces were washed for 15 min with the running buffer. Data were analyzed with BIAevaluation 4.1 software. From the SPR profiles (FIG. 15), it can be seen that the anti-human lysozyme VLs indeed bind to their target antigen, lysozyme, confirming the binding results obtained by phage ELISA.

protein A [3] = target: T1, protein A; assay: SPR, KD of the mutant against KD of the wild-type VH on protein A

B1: HVHP419S (antibody, V domains shown)
VH: QLQLQESGGGLVQPGGSLRLSCAASGFTFSSYAMSWVRQAPGKGLEWVCAISGSGGSTYYADSVKGRFTCSRDNSKNSLYLQMNSLGAEDTAVYYCARSWSGSSYGGDLDSWGQGTLVTVSS
notes: Cys49/Cys69 (Kabat) mutant of HVHP419; VH single-domain antibody; tag not specified
Kd (protein A [1]): 4800 nM
Kd (protein A [2]): 3200 nM

B2: HVLHLRN (antibody, V domains shown)
VL: DIQMTQSPSSLSASVGDRVTITCKASQGIRNRLYWYQQKPGKAPKLLCFPASILDSGVPSRFSCSGSGTDFTLTISNLQPEDFATYYCAQQPGLPNSRTFGHGTKVTVL
notes: Anti-human lysozyme VL single-domain antibody from the HVLP324S library (Cys48/Cys64); not shown: C-terminal His6 tag
Kd (human lysozyme): 50 nM

B3: HVLHLEM (antibody, V domains shown)
VL: DIQMTQSPSSLSASVGDRVTITCQASQGIEMFLQWYQQKPGKAPKLLCFAASTLQSGVPSRFSCSGSGTDFTLTISNLQPEDFATYYCVQPGVAPPPGTFGHGTKVTVL
notes: as for B2
Kd (human lysozyme): > 73000 nM

B4: HVLHLQI (antibody, V domains shown)
VL: DIQMTQSPSSLSASVGDRVTITCRASQSIQIMLDWYQQKPGKAPKLLCFGASFLISGVPSRFSCSGSGTDFTLTISNLQPEDFATYYCRQTWTPPAPTFGHGTKVTVL
notes: as for B2
Kd (human lysozyme): 2600 nM

B5: HVHP420S (antibody, V domains shown)
VH: QVQLVESGGGLVKPGGSLRLSCAASGFTFSNAWMTWVRQAPGKGLEWVCRIKTKTDGGTTDYAAPVKGRFTCSRDDSKNTLYLQMNSLKTEDTAVYYCTTDRDHSSGSWGQGTLVTVSS
notes: Cys49/Cys69 (Kabat) mutant of HVHP420; VH single-domain antibody; tag not specified
Kd (protein A [1]): 2200 nM

B6: HVLHLAQ (antibody, V domains shown)
VL: DIQMTQSPSSLSASVGDRVTITCGASQSIAQRLYWYQQKPGKAPKLLCFPASLLHSGVPSRFSCSGSGTDFTLTISNLQPEDFATYYCAQRASPPRPTFGHGTKVTVL
notes: as for B2
Kd (human lysozyme): 200 nM

B7: HVHAm431 (antibody, V domains shown)
VH: QVQLVESGGGLIKPGGSLRLSCAASGYTVSSECMGWVRQAPGKGLEWVSAISSSGGSTYYADSVKGRFTISRDNSKNTVYLQMNSLRAEDTAVYYCVRDSKNCHDKDCTRPYCSWGQGTMVTVSS
notes: Human VH single-domain antibody (wild-type), tested alone; tag not specified
Kd (protein A [1]): 4000 nM

B8: HVHAm431S (antibody, V domains shown)
VH: B7 VH with S49C, G55S, I70C
notes: Cys49/Cys69 (Kabat) mutant of HVHAm431; VH single-domain antibody; tag not specified
Kd (protein A [1]): 8000 nM

B9: HVHP421S (antibody, V domains shown)
VH: QLQLQESGGGVVQPGRSLRLSCAASGFTFSSYAMSWVRQAPGKGLEWVCAISGSGGSTYYADSVKGRFTCSRDNSKNTLYLQMNSLRAEDTAVYYCAKDGKGGSSGYDHPDYWGQGTLVTVSS
notes: Cys49/Cys69 (Kabat) mutant of HVHP421; VH single-domain antibody; tag not specified
Kd (protein A [1]): 2800 nM

B10: HVHM81S (antibody, V domains shown)
VH: EVQLVQSGGGLVQPGRSLRLSCAASGFTFDDYAMHWVRQAPGKGLEWVCGISGSGASTYYADSVKGRFTCSRDNSKNTLYLQMNSLRAGDTALYYCARQSITGPTGAFDVWGQGTMVTVSS
notes: Cys49/Cys69 (Kabat) mutant of HVHM81; VH single-domain antibody; tag not specified
Kd (protein A [1]): 2100 nM
fold reduction in protein A binding (increase in KD) against wild-type HVHM81 (protein A [3]): 1.6 fold

B11: HVHP414S (antibody, V domains shown)
VH: DVQLVQSGGGLVKPGGSLRLSCTASGFPFSNAWMSWVRQAPGKGLEWVCRITSKTDGGTTDYVAPVKGRFTCSRDDSKNTLYLQMNSLKTEDTAVYYCTTDQANAFDIWGQGTMVTVSS
notes: Cys49/Cys69 (Kabat) mutant of HVHP414; VH single-domain antibody; tag not specified
Kd (protein A [1]): 1800 nM

B12: HVHAm427 (antibody, V domains shown)
VH: QVQLVESGGGLIKPGGSLRLSCAASGVTLSPECMAWVRQAPGKGLEWVSAISSSGGSTYYADSVKGRFTISRDNSKNTVYLQMNSLRAEDTAVYYCVSCEGENAFWGQGTMVTVSS
notes: as for B7
Kd (protein A [1]): 1600 nM

B13: HVHAm427S (antibody, V domains shown)
VH: B12 VH with S49C, I70C
notes: Cys49/Cys69 (Kabat) mutant of HVHAm427; VH single-domain antibody; tag not specified
Kd (protein A [1]): 4000 nM

B14: HVLHLYS (antibody, V domains shown)
V domain: DIQMTQSPSSLSASVGDRVTITCQASQSIYSKLYWYQQKPGKAPKLLCFPASLLWSGVPSRFSCSGSGTDFTLTISNLQPEDFATYYCLQNAADPHRTFGHGTKVRL
notes: as for B2
Kd (human lysozyme): 6400 nM

B15: HVLHLNN (antibody, V domains shown)
VL: DIQMTQSPSSLSASVGDRVTITCSASQSINNRLYWYQQKPGKAPKLLCFPASFLFSGVPSRFSCSGSGTDFTLTISNLQPEDFATYYCQQSYSTPRTFGHGTKVTVL
notes: as for B2
Kd (human lysozyme): 200 nM

B16: HVLHLDS (antibody, V domains shown)
VL: B15 VL with S24T, A25V, S28G, N30D, N31S, F53L, F55E
notes: as for B2
Kd (human lysozyme): 6100 nM

B17: HVLHLNE (antibody, V domains shown)
VL: B15 VL with S24D, N31E, F53I, F55T, Q89R, S91P, Y92R, T94G, R96S
notes: as for B2
Kd (human lysozyme): 60 nM

B18: HVHP413S (antibody, V domains shown)
VH: QVQLVQSGGGLVKPGGSLRLSCAASGFTFSDYYMSWVRQAPGKGLEWVCFIYSGGSTYYADSVKGRFTCSRDNSKNTLYLQMNSLRAEDTAVYYCARESRVGGGAFDIWGQGTMVTVSS
notes: Cys49/Cys69 (Kabat) mutant of HVHP413; VH single-domain antibody; tag not specified
Kd (protein A [1]): 1500 nM

B19: HVHP429S (antibody, V domains shown)
VH: EVQLVESGGTLVQPGGSLRLSCAASGFTFINYAMSWVRQAPDKGLDWVCTISNNGGATYYADSVKGRFTCSRDNSNNTLYLQMNSLRPDDTAVYYCAKGPINTGRYGDWGQGTLVTVSS
notes: Cys49/Cys69 (Kabat) mutant of HVHP429; VH single-domain antibody; tag not specified
Kd (protein A [1]): 5500 nM
Kd (protein A [2]): 3400 nM

B20: HVHB82S (antibody, V domains shown)
VH: QVQLQESGGGLVQPGGSLRLSCAASGFTFSSYAMSWVRQAPGKGLEWVCAISGSGGSTYYADSVKGRFTCSRDNSKNTLYLQMNSLRAEDTAVYYCGTDMEVWGKGTTVTVSS
notes: Cys49/Cys69 (Kabat) mutant of HVHB82; VH single-domain antibody; tag not specified
Kd (protein A [1]): 1200 nM

B21: HVHPC235 (antibody, V domains shown)
VH: QVQLVESGGGLIKPGGSLRLSCAASGFSVISESMTWVRQAPGKGLEWVSAISSSGGSTYYADSVKGRFTISRDNSKNTVHLQMNSLRADDTAVYYCAAKKIDGARYDYWGQGTMVTVSS
notes: Human VH single-domain antibody (wild-type), tested alone; tag not specified; also called HVHAmC235; HVHC235
Kd (protein A [1]): 300 nM

B22: HVHPC235S (antibody, V domains shown)
VH: B21 VH with S49C, I70C, D89E
notes: Cys49/Cys69 (Kabat) mutant of HVHPC235; VH single-domain antibody; tag not specified; also called HVHAmC235S; HVHP235S
Kd (protein A [1]): 3000 nM
fold reduction in protein A binding (increase in KD) against wild-type HVHPC235 (protein A [3]): 10 fold

B23: HVHP430S (antibody, V domains shown)
VH: QVQLVESGGGLIKPGGSLRLSCAASGFTFSNYAMSWVRQAPGKGLEWVCAISSSGGSTYYADSVKGRFTCSRDNSKNTVYLQMNSLRAEDTAVYYCVREEYRCSGTSCPGAFDIWGQGTMVTVSS
notes: Cys49/Cys69 (Kabat) mutant of HVHP430; VH single-domain antibody; tag not specified
Kd (protein A [1]): 7700 nM

B24: HVHP426S (antibody, V domains shown)
VH: QVQLVQSGGGVVQPGRSLRLSCAASGFIVDGYAMHWVRQAPGQGLEWVCVTNNGGSTSYADSVKGRFTCSRDNSKNTVYLQMNSLRAEDTAVYYCARQSITGPTGAFDIWGQGTMVTVSS
notes: Cys49/Cys69 (Kabat) mutant of HVHP426; VH single-domain antibody; tag not specified
Kd (protein A [1]): 3400 nM

B25: HVHAm302 (antibody, V domains shown)
VH: QVQLVESGGGLIKPGGSLRLSCAASGDTVSDESMTWVRQAPGKGLEWVSAISSSGGSTYYADSVKGRFTISRDNSKNTVYLQMNSLRAEDTAVYYCVTDNRSCQTSLCTSTTRSWGQGTMVTVSS
notes: Human VH single-domain antibody (wild-type), tested alone; monomer peak used for SPR; tag not specified
Kd (protein A [1]): 3000 nM

B26: HVHAm302S (antibody, V domains shown)
VH: B25 VH with S49C, I70C
notes: Cys49/Cys69 (Kabat) mutant of HVHAm302; VH single-domain antibody; tag not specified
Kd (protein A [1]): 10000 nM

B27: HVHM41S (antibody, V domains shown)
VH: QVQLVQSGGGLVQPGRSLRLSCAASGFAFSSYAMSWVRQAPGKGLEWVCAISGGGDHTYYADSVKGRFTCSRDNSKNTLYLQMNSLRAEDTAVYYCAKEGMVRGVSSAPFDYWGQGTLVTVSS
notes: Cys49/Cys69 (Kabat) mutant of HVHM41; VH single-domain antibody; tag not specified
Kd (protein A [1]): 1500 nM
Kd (protein A [2]): 1800 nM

B28: HVHP428S (antibody, V domains shown)
VH: QLQLQESGGGLVQPGGSLRLSCAASGFTFSSYAMSWFRQAPGKGLEWVCFIRSKAYGGTTEYAASVKGRFTCSRDDSKSIAYLQMNSLRAEDTAMYYCARRAKDGYNSPEDYWGQGTLVTVSS
notes: Cys49/Cys69 (Kabat) mutant of HVHP428; VH single-domain antibody; tag not specified
Kd (protein A [1]): 1600 nM
